Source: IntAct's records for PubMed 21803990

B1: ATP-dependent protease ATPase subunit HslU (Escherichia coli (strain K12)), P0A6H5 (parent)
chain: MSEMTPREIVSELDKHIIGQDNAKRSVAIALRNRWRRMQLNEELRHEVTPKNILMIGPTGVGKTEIARRLAKLANAPFIKVEATKFTEVGYVGKEVDSIIRDLTDAAVKMVRVQAIEKNRYRAEELAEERILDVLIPPAKNNWGQTEQQQEPSAARQAFRKKLREGQLDDKEIEIDLAAAPMGVEIMAPPGMEEMTSQLQSMFQNLGGQKQKARKLKIKDAMKLLIEEEAAKLVNPEELKQDAIDAVEQHGIVFIDEIDKICKRGESSGPDVSREGVQRDLLPLVEGCTVSTKHGMVKTDHILFIASGAFQIAKPSDLIPELQGRLPIRVELQALTTSDFERILTEPNASITVQYKALMATEGVNIEFTDSGIKRIAEAAWQVNESTENIGARRLHTVLERLMEEISYDASDLSGQNITIDADYVSKHLDALVADEDLSRFIL
partner: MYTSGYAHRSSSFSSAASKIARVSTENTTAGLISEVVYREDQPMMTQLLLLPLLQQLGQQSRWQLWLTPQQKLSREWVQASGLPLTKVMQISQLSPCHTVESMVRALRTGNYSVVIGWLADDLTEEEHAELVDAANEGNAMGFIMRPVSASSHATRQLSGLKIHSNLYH

Variants of: B1
Conditions: with sula_ecoli sulA

| Variant | effect of a mutation on the interaction |
| --- | --- |
| Y408A | increasing interaction |
| E266Q | increasing interaction |
| Y91F | increasing interaction |

Variants of: B1
Conditions: with sula_ecoli sulA
Remark: another data set of the same source

| Variant | effect of a mutation on the interaction |
| --- | --- |
| G90D | increasing interaction |
